Results on 9 molecules are retold here after patent US20220220224A1 (Hoffmann-La Roche, published 2022).

Like-named read-outs stand apart in the source and are kept apart here.

Assay [1] addresses T1, recombinant biotinylated monomeric Fc fusion of human Folate Receptor 1 (huFolR1 ECD-AcTev-Fcknob-Avi tag … (human, UniProt P0DOX5 223-449 = IgG part, biotin on the C-terminal Avi tag)).
T1 construct: also called huFolR1-Fc; human FolR1-Fc
The experiment in a line: SPR ProteOn, Fab analyte on immobilized antigen-Fc. As to the method: (§1) Immobilization of antigens (ligand): Recombinant antigens were diluted with PBST (10 mM phosphate, 150 mM sodium chloride pH 7.4, 0.005% Tween 20) to 10 μg/ml, then injected at 30 μl/minute in vertical orientation. Injection of analytes: For ‘one-shot kinetics’ measurements, injection direction was changed to horizontal orientation, two-fold dilution series of purified Fab (varying concentration ranges) were injected simultaneously along separate channels 1-5, with association times of 200 s, and dissociation times of 600 s. Buffer (PBST) was injected along the sixth channel to provide an “in-line” blank for referencing. Association rate constants (kₒₙ) and dissociation rate constants (koff) were calculated using a simple one-to-one Langmuir binding model in ProteOn Manager v3.1 software by simultaneously fitting the association and dissociation sensorgrams. The equilibrium dissociation constant (KD) was calculated as the ratio koff/kₒₙ.

Assay [2] addresses T2, recombinant biotinylated monomeric Fc fusion of cynomolgus Folate Receptor 1 (cy FolR1 ECD-AcTev-Fcknob-Avi … (cynomolgus, UniProt P0DOX5 223-449 = IgG part, biotin on the C-terminal Avi tag)).
T2 construct: also called cyFolR1-Fc; cyno FolR1
Nature of the assay: SPR ProteOn, Fab analyte on immobilized antigen-Fc. As to the method:
as §1

Assay [3] has as its target T3, recombinant biotinylated monomeric Fc fusion of murine Folate Receptor 1 (mu FolR1 ECD-AcTev-Fcknob-Avitag … (murine, UniProt P0DOX5 223-449 = IgG part, biotin on the C-terminal Avi tag)).
T3 construct: also called muFolR1-Fc; murine FolR1
The experiment in a line: SPR ProteOn, Fab analyte on immobilized antigen-Fc. The protocol:
as §1

Assay [4] addresses T4, recombinant biotinylated monomeric Fc fusion of human Folate Receptor 2 (hu FolR2 ECD-AcTev-Fcknob-Avi tag … (human, UniProt P0DOX5 223-449 = IgG part, biotin on the C-terminal Avi tag)).
T4 construct: also called FolR2-Fc
Nature of the assay: SPR ProteOn, Fab analyte on immobilized antigen-Fc. The protocol:
as §1

For assay [5], the target named is T5, recombinant biotinylated monomeric Fc fusion of human Folate Receptor 3 (hu FolR3 ECD-AcTev-Fcknob-Avi tag … (human, UniProt P0DOX5 223-449 = IgG part, biotin on the C-terminal Avi tag)).
T5 construct: also called FolR3-Fc
The experiment in a line: SPR ProteOn, Fab analyte on immobilized antigen-Fc. As to the method:
as §1

Assay [6] deals with T2, recombinant biotinylated monomeric Fc …. The experiment in a line: SPR Biacore, affinity (monovalent), antibody captured via anti-Fab. As to the method: (§2) Binding of FolR1 binders as IgG or in the T-cell bispecific format to different recombinant folate receptors (human FolR1, 2 and 3, murine FolR1 and cynomolgus FolR1; all as Fc fusions) was assessed by surface plasmon resonance (SPR). All SPR experiments were performed on a Biacore T200 at 25° C. with HBS-EP as running buffer (0.01 M HEPES pH 7.4, 0.15 M NaCl, 3 mM EDTA, 0.005% Surfactant P20, Biacore, Freiburg/Germany).
For affinity measurement, direct coupling of around 6000-7000 resonance units (RU) of the anti-human Fab specific antibody (Fab capture kit, GE Healthcare) was performed on a CM5 chip at pH 5.0 using the standard amine coupling kit (GE Healthcare). Anti-FolR1 IgGs or T cell bispecifics were captured at 20 nM with a flow rate of 10 μl/min for 20 or 40 sec, the reference flow cell was left without capture. Dilution series (6.17 to 500 nM or 12.35 to 3000 nM) of human or cyno Folate Receptor 1 Fc fusion were passed on all flow cells at 30 μl/min for 120 or 240 sec to record the association phase. The dissociation phase was monitored for 240 s and triggered by switching from the sample solution to HBS-EP. The chip surface was regenerated after every cycle using a double injection of 60 sec 10 mM Glycine-HCl pH 2.1 or pH 1.5. Bulk refractive index differences were corrected for by subtracting the response obtained on the reference flow cell 1. The affinity constants for the interactions were derived from the rate constants by fitting to a 1:1 Langmuir binding using the Bia Evaluation software (GE Healthcare).

Assay [7] has the same target. Nature of the assay: SPR Biacore, avidity (bivalent, apparent KD), antigen-Fc on SA chip. As to the method: as §2
Recombinant biotinylated monomeric Fc fusions of human, cynomolgus and murine Folate Receptor 1 (FolR1-Fc) were directly coupled on a SA chip using the standard coupling instruction (Biacore, Freiburg/Germany). The immobilization level was about 300-400 RU. The anti-FolR1 IgGs or T cell bispecifics were passed at a concentration range from 2.1 to 500 nM with a flow of 30 μL/minutes through the flow cells over 180 seconds. The dissociation was monitored for 600 seconds. Bulk refractive index differences were corrected for by subtracting the response obtained on reference flow cell immobilized with recombinant biotinylated IL2 receptor Fc fusion. […] The binding curves resulting from the bivalent binding of the IgGs or T cell bispecifics were approximated to a 1:1 Langmuir binding and fitted with that model (which is not correct, but gives an idea of the avidity). The apparent avidity constants for the interactions were derived from the rate constants of the fitting using the Bia Evaluation software (GE Healthcare).

Assay [8] concerns the target T3, recombinant biotinylated monomeric Fc …. The experiment in a line: SPR ProteOn, Fab analyte on immobilized antigen-Fc. As to the method: Immobilization of antigens (ligand): Recombinant antigens were diluted with PBST (10 mM phosphate, 150 mM sodium chloride pH 7.4, 0.005% Tween 20) to 10 μg/ml, then injected at 30 μl/minute in vertical orientation. Injection of analytes: For ‘one-shot kinetics’ measurements, injection direction was changed to horizontal orientation, two-fold dilution series of purified Fab (varying concentration ranges) were injected simultaneously along separate channels 1-5, with association times of 150 or 200 s, and dissociation times of 200 or 600 s, respectively. Buffer (PBST) was injected along the sixth channel to provide an “in-line” blank for referencing. Association rate constants (kₒₙ) and dissociation rate constants (koff) were calculated using a simple one-to-one Langmuir binding model in ProteOn Manager v3.1 software by simultaneously fitting the association and dissociation sensorgrams. The equilibrium dissociation constant (KD) was calculated as the ratio koff/kₒₙ.
The source holds these as a separate data set.

B1: 15B6 Fab (Fab, V domains shown)
VH: QVQLVQSGAEVKKPGASVKVSCKASGYTFTSYYMHWVRQAPGQGLEWMGIINPSGGSTSYAQKFQGRVTMTRDTSTSTVYMELSSLRSEDTAVYYCARNYYIGIVPFDYWGQGTLVTVSS
VL: QAVVTQEPSLTVSPGGTVTLTCGSSTGAVTTSNYANWVQEKPGQAFRGLIGGTNKRAPGTPARFSGSLLGGKAALTLSGAQPEDEAEYYCALWYSNLWVFGGGTKLTVL
notes: bacterial Fab
B1: the Kd is 19.1 nM in assay [1] and 13.9 nM in assay [2]. The binding result in assay [3], in assay [4] and in assay [5] was “no binding” each time.

B2: 16D5 Fab (Fab, V domains shown)
VH: not shown
VL: QAVVTQEPSLTVSPGGTVTLTCGSSTGAVTTSNYANWVQEKPGQAFRGLIGGTNKRAPGTPARFSGSLLGGKAALTLSGAQPEDEAEYYCALWYSNLWVFGGGTKLTVL
notes: bacterial Fab
Regarding B2, the binding result in assay [3], in assay [4] and in assay [5] was “no binding” in each case.

B3: 21A5 Fab (Fab, V domains shown)
VH: not shown
VL: QAVVTQEPSLTVSPGGTVTLTCGSSTGAVTTSNYANWVQEKPGQAFRGLIGGTNKRAPGTPARFSGSLLGGKAALTLSGAQPEDEAEYYCALWYSNLWVFGGGTKLTVL
notes: bacterial Fab
With B3, the binding result in assay [3] and in assay [4] was “no binding” throughout.

B4: 21G8 Fab (Fab, V domains shown)
VH: not shown
VL: QAVVTQEPSLTVSPGGTVTLTCGSSTGAVTTSNYANWVQEKPGQAFRGLIGGTNKRAPGTPARFSGSLLGGKAALTLSGAQPEDEAEYYCALWYSNLWVFGGGTKLTVL
notes: bacterial Fab
For B4, the binding result in assay [3] is listed as “no binding”.

B5: 16F12 Fab (Fab, V domains shown)
VH: QVQLVQSGAEVKKPGASVKVSCKASGYTFTSYYMHWVRQAPGQGLEWMGIINPSGGSTSYAQKFQGRVTMTRDTSTSTVYMELSSLRSEDTAVYYCARNFTVLRVPFDYWGQGTLVTVSS
VL: QAVVTQEPSLTVSPGGTVTLTCGSSTGAVTTSNYANWVQEKPGQAFRGLIGGTNKRAPGTPARFSGSLLGGKAALTLSGAQPEDEAEYYCALWYSNLWVFGGGTKLTVL
notes: bacterial Fab
On to B5, for which the Kd in assay [1] stood at 68 nM; in assay [2], 90.9 nM. Moreover, the binding result in assay [3], in assay [4] and in assay [5] was “no binding” in each case.

B6: Farletuzumab (antibody, V domains shown)
VH: EVQLVESGGGVVQPGRSLRLSCSASGFTFSGYGLSWVRQAPGKGLEWVAMISSGGSYTYYADSVKGRFAISRDNAKNTLFLQMDSLRPEDTGVYFCARHGDDPAWFAYWGQGTPVTVSS
VL: DIQLTQSPSSLSASVGDRVTITCSVSSSISSNNLHWYQQKPGKAPKPWIYGTSNLASGVPSRFSGSGSGTDYTFTISSLQPEDIATYYCQQWSSYPYMYTFGQGTKVEIKR
Consider B6, for which the Kd in assay [6] worked out at 67.3 nM; in assay [7], 0.65 nM.

B7: 5D9 Fab (Fab, V domains shown)
VH: QVQLVQSGAEVKKPGASVKVSCKASGYTFTSYYMHWVRQAPGQGLEWMGIINPSGGSTSYAQKFQGRVTMTRDTSTSTVYMELSSLRSEDTAVYYCARSYIDMDYWGQGTLVTVSS
VL: EIVLTQSPGTLSLSPGERATLSCRASQSVSSSYLAWYQQKPGQAPRLLIYGASSRATGIPDRFSGSGSGTDFTLTISRLEPEDFAVYYCQQDNWSPTFGQGTKVEIK
notes: bacterial Fab
Regarding B7, in assay [8], the binding result is “no binding”.

B8: 6B6 Fab (Fab, V domains shown)
VH: QVQLVQSGAEVKKPGASVKVSCKASGYTFTSYYMHWVRQAPGQGLEWMGIINPSGGSTSYAQKFQGRVTMTRDTSTSTVYMELSSLRSEDTAVYYCARSYVDMDYWGQGTLVTVSS
VL: EIVLTQSPGTLSLSPGERATLSCRASQSVSSSYLAWYQQKPGQAPRLLIYGASSRATGIPDRFSGSGSGTDFTLTISRLEPEDFAVYYCQQDIWSPTFGQGTKVEIK
notes: bacterial Fab
Consider B8, for which the binding result in assay [8] is on record as “no binding”.

B9: 11F8 Fab (Fab, V domains shown)
VH: QVQLVQSGAEVKKPGSSVKVSCKASGGTFSSYAISWVRQAPGQGLEWMGGIIPIFGTANYAQKFQGRVTITADKSTSTAYMELSSLRSEDTAVYYCARAVFYRAWYSFDYWGQGTTVTVSS
VL: DIQMTQSPSTLSASVGDRVTITCRASQSISSWLAWYQQKPGKAPKLLIYDASSLESGVPSRFSGSGSGTEFTLTISSLQPDDFATYYCQQYTSPPPTFGQGTKVEIK
notes: bacterial Fab
In the case of B9, in assay [8], the Kd stood at 1200 nM.
